What was measured:
[1] = molecular target: FliG 117C/166C protein (E. coli) (UniProt P0ABZ1); experiment: cross-linking
[2] = molecular target: FliG 158C/214C mutant (E. coli) (UniProt P0ABZ1); experiment: cross-linking

Row | stoichiometry N [1] | stoichiometry N [2] | Substance
1 | 8 subunits |  | FliG 117C/166C protein (from UniProt P0ABZ1 1-331) (natural protein)
2 |  | > 9 subunits | FliG 158C/214C mutant (from UniProt P0ABZ1 1-331) (natural protein)
